The text below walks through data of patent US20220323583A1, “Pharmaceutical Formulations of Bi-Specific Diabodies and Use of the Same” (MacroGenics, Inc., priority 2019, published 2022).

The target of one assay is Human CD3ε/δ (human) (UniProt P07766). The assay can be described thus: kinetic binding measurement, method not stated.
Assay [1] concerns the target Cynomolgus CD3ε/δ (cynomolgus monkey) (UniProt Q95LI5). The assay can be described thus: kinetic binding measurement, method not stated.

Sequence of Human CD3ε/δ (human) (P07766 23-126, stated change not applied, chain 1 of 2): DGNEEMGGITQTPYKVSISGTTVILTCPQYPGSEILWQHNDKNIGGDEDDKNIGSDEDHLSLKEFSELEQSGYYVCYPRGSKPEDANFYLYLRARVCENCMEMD
Sequence of Human CD3ε/δ (human) (P04234 22-105, stated change not applied, chain 2 of 2, further chain): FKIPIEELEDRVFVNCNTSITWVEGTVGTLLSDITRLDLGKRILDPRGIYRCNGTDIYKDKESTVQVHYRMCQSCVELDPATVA

B1: DART-A, sequence-optimized CD123×CD3 bispecific diabody (bispecific antibody)
chain 1: QAVVTQEPSLTVSPGGTVTLTCRSSTGAVTTSNYANWVQQKPGQAPRGLIGGTNKRAPWTPARFSGSLLGGKAALTITGAQAEDEADYYCALWYSNLWVFGGGTKLTVLGGGGSGGGGEVQLVQSGAELKKPGASVKVSCKASGYTFTDYYMKWVRQAPGQGLEWIGDIIPSNGATFYNQKFKGRVTITVDKSTSTAYMELSSLRSEDTAVYYCARSHLLRASWFAYWGQGTLVTVSSGGCGGGEVAALEKEVAALEKEVAALEKEVAALEK
chain 2: DFVMTQSPDSLAVSLGERVTMSCKSSQSLLNSGNQKNYLTWYQQKPGQPPKLLIYWASTRESGVPDRFSGSGSGTDFTLTISSLQAEDVAVYYCQNDYSYPYTFGQGTKLEIKGGGSGGGGEVQLVESGGGLVQPGGSLRLSCAASGFTFSTYAMNWVRQAPGKGLEWVGRIRSKYNNYATYYADSVKDRFTISRDDSKNSLYLQMNSLKTEDTAVYYCVRHGNFGNSYVSWFAYWGQGTLVTVSSGGCGGGKVAALKEKVAALKEKVAALKEKVAALKE
As usually defined, the Kd is a measure of binding affinity in units of concentration. One may read the koff as a measure of how fast the partners let go of each other. Read a high koff as fast dissociation. For orientation: kon means a measure of how fast the partners come together. Low values mean slower complex formation, high ones faster complex formation. In the assay with Human CD3ε/δ (human), B1 yielded a Kd of 9 nM, a koff of 0.005 s⁻¹ and a kon of 570000 M⁻¹ s⁻¹. For the same molecule, in assay [1], the Kd is 9.2 nM, the off-rate constant (koff) amounted to 0.005 s⁻¹ and the on-rate (kon) came out at 550000 M⁻¹ s⁻¹.
